Test results as given in the supplement of paper PMC11246515.
± gives the standard deviation of the averaged measurements.

Experiment: total protein half-life in vivo (active degradation + dilution); higher = more stable protein
[1] = E. coli NCM3722 delta-clpP, growth: N-lim chemostat, doubling time 6 h
[2] = E. coli NCM3722 delta-hslV, growth: N-lim chemostat, doubling time 6 h
[3] = E. coli NCM3722 delta-lon, growth: N-lim chemostat, doubling time 6 h
[4] = E. coli NCM3722 delta-smpB, growth: N-lim chemostat, doubling time 6 h
[5] = wild type E. coli NCM3722, growth: C-lim chemostat, doubling time 6 h
[6] = wild type E. coli NCM3722, growth: C-lim chemostat, doubling time 12 h
[7] = wild type E. coli NCM3722, growth: N-lim chemostat, doubling time 6 h
[8] = wild type E. coli NCM3722, growth: N-lim chemostat, doubling time 12 h
[9] = wild type E. coli NCM3722, growth: P-lim chemostat, doubling time 6 h
[10] = wild type E. coli NCM3722, growth: P-lim chemostat, doubling time 12 h
[11] = E. coli NCM3722 delta-clpP delta-lon delta-hslV, growth: N-lim chemostat, doubling time 6 h
[12] = wild type E. coli NCM3722, growth: C-lim chemostat, doubling time 3 h

Sequence | total protein half-life in vivo [1] | total protein half-life in vivo [2] | total protein half-life in vivo [3] | total protein half-life in vivo [4] | total protein half-life in vivo [5] | total protein half-life in vivo [6] | total protein half-life in vivo [7] | total protein half-life in vivo [8] | total protein half-life in vivo [9] | total protein half-life in vivo [10] | total protein half-life in vivo [11] | total protein half-life in vivo [12]
MQPFGVLDRYIGKTIFTTIMMTLFMLVSLSGIIKFVDQLKKAGQGSYDALGAGMYTLLSVPKDVQIFFPMAALLGALLGLGMLAQRSELVVMQASGFTRMQVALSVMKTAIPLVLLTMAIGEWVAPQGEQMARNYRAQAMYGGSLLSTQQGLWAKDGNNFVYIERVKGDEELGGISIYAFNENRRLQSVRYAATAKFDPEHKVWRLSQVDESDLTNPKQITGSQTVSGTWKTNLTPDKLGVVALDPDALSISGLHNYVKYLKSSGQDAGRYQLNMWSKIFQPLSVAVMMLMALSFIFGPLRSVPMGVRVVTGISFGFVFYVLDQIFGPLTLVYGIPPIIGALLPSASFFLISLWLLMRKS [P0ADC6] | 6.53 ± 0.4 h | 6.81 ± 0.8 h | 6.01 ± 0.47 h | 6.08 ± 0.48 h | 6.69 ± 0.65 h | 12.3 ± 0.43 h | 6.06 ± 0.099 h | 12.9 ± 0.5 h | 6.22 ± 0.49 h | 13.5 ± 0.88 h | – | –
MTKSELIERLATQQSHIPAKTVEDAVKEMLEHMASTLAQGERIEIRGFGSFSLHYRAPRTGRNPKTGDKVELEGKYVPHFKPGKELRDRANIYG [P0A6Y1] | 5.26 ± 0.3 h | 5.99 ± 1.1 h | 6.3 ± 0.4 h | 4.64 ± 0.21 h | 4.3 ± 0.44 h | 6.05 ± 0.37 h | 4.71 ± 0.18 h | 8.31 ± 2.4 h | 2.62 ± 0.24 h | 5.3658 ± 0.0042 h | 6.88 ± 0.81 h | 2.47 ± 0.093 h
MGSTRKGMLNVLIAAVLWGSSGVCAQYIMEQSQMSSQFLTMTRLIFAGLILLTLSFVHGDKIFSIINNHKDAISLLIFSVVGALTVQLTFLLTIEKSNAATATVLQFLSPTIIVAWFSLVRKSRPGILVFCAILTSLVGTFLLVTHGNPTSLSISPAALFWGIASAFAAAFYTTYPSTLIARYGTLPVVGWSMLIGGLILLPFYARQGTNFVVNGSLILAFFYLVVIGTSLTFSLYLKGAQLIGGPKASILSCAEPLSSALLSLLLLGITFTLPDWLGTLLILSSVILISMDSRRRARKINRPARHK | 6.18 h | 4.72 ± 1.2 h | 5.26 h | – | 6.04 h | 13.3 h | 5.29 h | 12.8 h | 5.97 h | 12 ± 0.74 h | – | –
MSTTHNVPQGDLVLRTLAMPADTNANGDIFGGWLMSQMDIGGAILAKEIAHGRVVTVRVEGMTFLRPVAVGDVVCCYARCVQKGTTSVSINIEVWVKKVASEPIGQRYKATEALFKYVAVDPEGKPRALPVE [P0A8Z0] | 5.16 ± 0.9 h | 5.24 ± 0.38 h | 5.86 ± 0.43 h | 5 ± 0.31 h | 5.72 ± 0.64 h | 11.1 ± 0.23 h | 5.6 ± 0.096 h | 10.1 ± 0.37 h | 5.8 ± 0.5 h | 13.3 ± 0.14 h | 5.03 ± 0.4 h | 2.93 ± 0.13 h
MISTVALFWALCVVCIVNMARYFSSLRALLVVLRNCDPLLYQYVDGGGFFTSHGQPNKQVRLVWYIYAQRYRDHHDDEFIRRCERVRRQFILTSALCGLVVVSLIALMIWH [P0A8S5] | 0.778 h | – | – | – | > 8 h | – | – | – | – | – | 0.94 h | 0.797 h
MIFTSSCCDNLSIDEIIERAEKGDCEAQYIVGFYYNRDSAIDSPDDEKAFYWLKLAAEQGHCEAQYSLGQKYTEDKSRHKDNEQAIFWLKKAALQGHTFASNALGWTLDRGEAPNYKEAVVWYQIAAESGMSYAQNNLGWMYRNGNGVAKDYALAFFWYKQAALQGHSDAQNNLADLYEDGKGVAQNKTLAAFWYLKSAQQGNRHAQFQIAWDYNAGEGVDQDYKQAMYWYLKAAAQGSVGAYVNIGYMYKHGQGVEKDYQAAFEWFTKAAECNDATAWYNLAIMYHYGEGRPVDLRQALDLYRKVQSSGTRDVSQEIRETEDLL | – | – | – | – | – | – | – | – | – | – | 6.2 h | –
MPVFALLALVAYSVSLALIVPGLLQKNGGWRRMAIISAVIALVCHAIALEARILPDGDSGQNLSLLNVGSLVSLMICTVMTIVASRNRGWLLLPIVYAFALINLALATFMPNEYITHLEATPGMLVHIGLSLFSYATLIIAALYALQLAWIDYQLKNKKLAFNQEMPPLMSIERKMFHITQIGVVLLTLTLCTGLFYMHNLFSMENIDKAVLSIVAWFVYIVLLWGHYHEGWRGRRVVWFNVAGAVILTLAYFGSRIVQQLIS | – | – | – | – | – | 13.6 h | 6.45 h | – | – | 15.5 h | – | –
MKIKTRFAPSPTGYLHVGGARTALYSWLFARNHGGEFVLRIEDTDLERSTPEAIEAIMDGMNWLSLEWDEGPYYQTKRFDRYNAVIDQMLEEGTAYKCYCSKERLEALREEQMAKGEKPRYDGRCRHSHEHHADDEPCVVRFANPQEGSVVFDDQIRGPIEFSNQELDDLIIRRTDGSPTYNFCVVVDDWDMEITHVIRGEDHINNTPRQINILKALKAPVPVYAHVSMINGDDGKKLSKRHGAVSVMQYRDDGYLPEALLNYLVRLGWSHGDQEIFTREEMIKYFTLNAVSKSASAFNTDKLLWLNHHYINALPPEYVATHLQWHIEQENIDTRNGPQLADLVKLLGERCKTLKEMAQSCRYFYEDFAEFDADAAKKHLRPVARQPLEVVRDKLAAITDWTAENVHHAIQATADELEVGMGKVGMPLRVAVTGAGQSPALDVTVHAIGKTRSIERINKALDFIAERENQQ | 5.2 ± 0.2 h | 5.5 ± 0.56 h | 5.42 ± 0.13 h | 5.06 ± 0.56 h | 6.28 ± 0.22 h | 12.5 ± 0.98 h | 5.34 ± 0.34 h | 9.3 ± 0.16 h | 6.23 ± 0.25 h | 12.2 ± 0.93 h | 5.79 ± 0.64 h | 3.22 ± 0.47 h
